Experimental data: IntAct's records for PubMed 26471729

B1: Antiviral innate immune response receptor RIG-I (Homo sapiens), O95786 (parent)
chain: MTTEQRRSLQAFQDYIRKTLDPTYILSYMAPWFREEEVQYIQAEKNNKGPMEAATLFLKFLLELQEEGWFRGFLDALDHAGYSGLYEAIESWDFKKIEKLEEYRLLLKRLQPEFKTRIIPTDIISDLSECLINQECEEILQICSTKGMMAGAEKLVECLLRSDKENWPKTLKLALEKERNKFSELWIVEKGIKDVETEDLEDKMETSDIQIFYQEDPECQNLSENSCPPSEVSDTNLYSPFKPRNYQLELALPAMKGKNTIICAPTGCGKTFVSLLICEHHLKKFPQGQKGKVVFFANQIPVYEQQKSVFSKYFERHGYRVTGISGATAENVPVEQIVENNDIIILTPQILVNNLKKGTIPSLSIFTLMIFDECHNTSKQHPYNMIMFNYLDQKLGGSSGPLPQVIGLTASVGVGDAKNTDEALDYICKLCASLDASVIATVKHNLEELEQVVYKPQKFFRKVESRISDKFKYIIAQLMRDTESLAKRICKDLENLSQIQNREFGTQKYEQWIVTVQKACMVFQMPDKDEESRICKALFLYTSHLRKYNDALIISEHARMKDALDYLKDFFSNVRAAGFDEIEQDLTQRFEEKLQELESVSRDPSNENPKLEDLCFILQEEYHLNPETITILFVKTRALVDALKNWIEGNPKLSFLKPGILTGRGKTNQNTGMTLPAQKCILDAFKASGDHNILIATSVADEGIDIAQCNLVILYEYVGNVIKMIQTRGRGRARGSKCFLLTSNAGVIEKEQINMYKEKMMNDSILRLQTWDEAVFREKILHIQTHEKFIRDSQEKPKPVPDKENKKLLCRKCKALACYTADVRVIEECHYTVLGDAFKECFVSRPHPKPKQFSSFEKRAKIFCARQNCSHDWGIHVKYKTFEIPVIKIESFVVEDIATGVQTLYSKWKDFHFEKIPFDPAEMSK
partner: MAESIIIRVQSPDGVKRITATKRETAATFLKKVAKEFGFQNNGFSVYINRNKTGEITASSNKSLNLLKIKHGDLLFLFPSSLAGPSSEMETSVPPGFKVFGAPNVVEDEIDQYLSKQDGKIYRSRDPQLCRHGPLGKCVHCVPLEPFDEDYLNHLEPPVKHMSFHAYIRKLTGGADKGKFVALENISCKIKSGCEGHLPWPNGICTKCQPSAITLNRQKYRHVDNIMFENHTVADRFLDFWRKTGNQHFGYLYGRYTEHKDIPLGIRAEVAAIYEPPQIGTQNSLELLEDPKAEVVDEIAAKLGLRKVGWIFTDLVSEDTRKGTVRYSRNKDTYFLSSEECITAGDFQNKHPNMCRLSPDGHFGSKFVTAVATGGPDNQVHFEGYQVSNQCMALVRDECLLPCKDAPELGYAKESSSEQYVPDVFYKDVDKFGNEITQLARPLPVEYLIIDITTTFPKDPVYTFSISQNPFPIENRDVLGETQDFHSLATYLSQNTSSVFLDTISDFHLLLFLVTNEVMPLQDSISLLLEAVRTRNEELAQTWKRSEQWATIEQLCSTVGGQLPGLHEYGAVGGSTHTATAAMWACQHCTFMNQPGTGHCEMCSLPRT

Variants of: B1
Details: with npl4_human NPLOC4, Q8TAT6

Variant | effect of a mutation on the interaction
T170E;K172R | decreasing interaction strength
K172R | decreasing interaction strength
K181R | with no effect
